{"source": "patent US20240110004A1", "about": "(Northwestern University, priority 2022, published 2024)", "key": {"R6/2 mice": {"system": "R6/2 mice", "experiment": "Western blot of DARPP-32, PSD95 and BDNF in striatal lysates", "assay_type": "in vivo, mouse", "description": "FIG. 32A-32C: Histograms of Quantified Western Blot Results for Protein Levels (blots not shown). Actin was used as the loading control in the Western Blot, results are therefore depicted as ratios of the protein of interest signal relative to the actin signal in each sample. FIG. 32A depicts DARPP-32 levels in striatal lysates. p-value for: WT veh as compared to R62 veh: <0.0001; WT+P1 as compared to R62 veh: <0.0001; R62 veh as compared to R62+HV3-TAT: 0.0493; R62 veh as compared to R62+P1: 0.0027; R62+P1 as compared to R62+HV3-TAT: 0.7733. FIG. 32B depicts PSD95 levels in striatal lysates. p-value for: WT veh as compared to R62 veh: 0.0034; WT+P1 as compared to R62 veh: <0.0001; R62 veh as compared to R62+HV3-TAT: 0.0191; R62 veh as compared to R62+P1: <0.0001; R62+P1 as compared to R62+HV3-TAT: 0.1442. FIG. 32C depicts BDNF levels in striatal lysates. p-value for: WT veh as compared to R62 veh: <0.0001; WT+P1 as compared to R62 veh: <0.0001; R62 veh as compared to R62+HV3-TAT: 0.0120; R62 veh as compared to R62+P1: <0.0001; R62+P1 as compared to R62+HV3-TAT: 0.0257.\nIn vivo Efficacy Methods—Levels of Proteins of Interest: To further assess the efficacy of P1 in modulating HD neuropathology, the levels of cAMP-regulated phosphoprotein 32 kDa (DARPP-32), post-synaptic density protein (PSD95), and brain derived neurotrophic factor (BDNF) were determined in medium spiny neurons, each of which are decreased in the striatum of HD patients and R6/2 mouse models. Striatal lysates were generated from frozen striatal tissue from un-perfused sacrificed mice. Using a plate reader, protein concentrations were determined by protein assay dye (Bio-Rad). Protein stocks in lysis buffer were mixed with Laemmli buffer, loaded on SDS-PAGE, and transferred onto nitrocellulose membranes (Invitrogen). Membranes were probed with the primary antibodies for actin, DARPP-32, PSD95, and BDNF, and respective IgG-HRP secondary antibodies, followed by visualization of HRP with a blot scanner."}, "[1]": {"details": "human, microsomes", "method": "At each time point, 10 μL of supernatant was diluted with 90 μL of water with 0.1% trifluoroacetic acid."}}, "note": "Where no end group is shown, it is not given here."}
{"substance": "P1: PLP homopolymer having peptide side chains of SEQ ID: 1 (HVLVMSATRR), made by ROMP of norbornene peptide monomer M1 (also: side chains of polynorbornene homopolymer (PLP, ROMP of norbornene peptide monomer))", "values": [{"measurement": "molecular weight on SDS-PAGE after enzyme treatment", "setting": "enzymes", "result": "maintained molecular weight"}, {"measurement": "BDNF protein levels in striatal lysates", "setting": "R6/2 mice; compared to the saline control", "result": "Significant increases"}, {"measurement": "PSD95 protein levels in striatal lysates", "setting": "R6/2 mice; compared to the saline control", "result": "Significant increases"}, {"measurement": "DARPP-32 levels in striatal lysates (immunoblotting)", "setting": "R6/2 mice; over saline control", "result": "significantly increased DARPP-32 levels"}, {"measurement": "hemolytic activity", "setting": "red blood cells", "result": "non-significant"}, {"measurement": "C3a complement activation compared to the vehicle", "setting": "C3a", "result": "did not show a statistically significant difference"}, {"measurement": "liver microsomal stability", "setting": "[1]", "result": "superior stability"}]}
